Assay results reported in the supplement of paper PMC9112550, “Optimization of the antimicrobial peptide Bac7 by deep mutational scanning” (BMC Biology, 2022).
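Note: peptides expressed intracellularly from a pBAD plasmid library in pooled LB shake-flask culture, induced with 0.3% L-arabinose, DNA abundance read by NGS, three biological replicates, DESeq2 with apeglm shrinkage.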

What follows are sequences tested on Escherichia coli TOP10 (assay: shrunken log2 fold change of peptide-encoding DNA abundance (4.5 h post-induction vs induction); higher = less antimicrobial activity (less host growth inhibition)). Conditions: time post-induction: 4.5 h; library: site-saturation at positions 5, 18, 19, 20.
In the case of RRIRTRPPRLPRPRPRPFLEPRP, the “shrunken log2 fold change” value is reported as -0.417.
With RRIRLRPPRLPRPRPRPTMFPRP the “shrunken log2 fold change” value was -0.0861.
In the case of RRIRMRPPRLPRPRPRPNQNPRP, the “shrunken log2 fold change” value is reported as 0.079.
In the case of RRIRERPPRLPRPRPRPQELPRP, the “shrunken log2 fold change” value is reported as -0.755.
RRIRRRPPRLPRPRPRPRWFPRP was tested, and the “shrunken log2 fold change” value was 0.524.
RRIRCRPPRLPRPRPRPGDEPRP was tested, and the “shrunken log2 fold change” value was 0.105.
RRIRRRPPRLPRPRPRPLSRPRP was tested, and the “shrunken log2 fold change” value was 0.0601.
RRIRLRPPRLPRPRPRPFHTPRP was tested, and the “shrunken log2 fold change” value was -0.00564.
With RRIRCRPPRLPRPRPRPEWCPRP the “shrunken log2 fold change” value was 0.145.
With RRIRQRPPRLPRPRPRPPGGPRP the “shrunken log2 fold change” value was 0.448.
In the case of RRIRARPPRLPRPRPRPERFPRP, the “shrunken log2 fold change” value is reported as 0.0769.
In the case of RRIRRRPPRLPRPRPRPNPTPRP, the “shrunken log2 fold change” value is reported as 0.0244.
For RRIRSRPPRLPRPRPRPICRPRP, the “shrunken log2 fold change” value was -0.0192.
With RRIRDRPPRLPRPRPRPNVIPRP the “shrunken log2 fold change” value was -0.0253.
RRIRERPPRLPRPRPRPRNDPRP was tested, and the “shrunken log2 fold change” value was -0.478.
With RRIRMRPPRLPRPRPRPLHNPRP the “shrunken log2 fold change” value was -0.127.
For RRIRPRPPRLPRPRPRPDTCPRP, the “shrunken log2 fold change” value was -0.594.
RRIRERPPRLPRPRPRPVVFPRP was tested, and the “shrunken log2 fold change” value was -0.0884.
In the case of RRIRNRPPRLPRPRPRPNPMPRP, the “shrunken log2 fold change” value is reported as -0.0603.
With RRIRLRPPRLPRPRPRPTKFPRP the “shrunken log2 fold change” value was -0.0571.
In the case of RRIRCRPPRLPRPRPRPVAGPRP, the “shrunken log2 fold change” value is reported as 0.0113.
With RRIRWRPPRLPRPRPRPTEAPRP the “shrunken log2 fold change” value was 0.214.
In the case of RRIRGRPPRLPRPRPRPLRMPRP, the “shrunken log2 fold change” value is reported as 0.848.
In the case of RRIRCRPPRLPRPRPRPHCNPRP, the “shrunken log2 fold change” value is reported as -0.395.
For RRIRFRPPRLPRPRPRPHHHPRP, the “shrunken log2 fold change” value was -0.678.
RRIRLRPPRLPRPRPRPKEEPRP was tested, and the “shrunken log2 fold change” value was -0.0533.
In the case of RRIRFRPPRLPRPRPRPVSTPRP, the “shrunken log2 fold change” value is reported as -0.476.
In the case of RRIRFRPPRLPRPRPRPQTDPRP, the “shrunken log2 fold change” value is reported as -0.21.
For RRIRNRPPRLPRPRPRPPTIPRP, the “shrunken log2 fold change” value was 0.244.
In the case of RRIRKRPPRLPRPRPRPNKSPRP, the “shrunken log2 fold change” value is reported as 0.0234.
For RRIRNRPPRLPRPRPRPIAIPRP, the “shrunken log2 fold change” value was -0.0153.
RRIRHRPPRLPRPRPRPRWGPRP was tested, and the “shrunken log2 fold change” value was 0.255.
With RRIRHRPPRLPRPRPRPAPHPRP the “shrunken log2 fold change” value was 0.223.
RRIRFRPPRLPRPRPRPTIMPRP was tested, and the “shrunken log2 fold change” value was -0.375.
In the case of RRIRLRPPRLPRPRPRPWTMPRP, the “shrunken log2 fold change” value is reported as -0.202.
With RRIRERPPRLPRPRPRPCNEPRP the “shrunken log2 fold change” value was -1.12.
RRIRMRPPRLPRPRPRPHQFPRP was tested, and the “shrunken log2 fold change” value was -0.0236.
In the case of RRIRQRPPRLPRPRPRPDYQPRP, the “shrunken log2 fold change” value is reported as 0.00672.
With RRIRRRPPRLPRPRPRPHEYPRP the “shrunken log2 fold change” value was -0.0758.
In the case of RRIRNRPPRLPRPRPRPWDTPRP, the “shrunken log2 fold change” value is reported as -0.0124.
With RRIRHRPPRLPRPRPRPITKPRP the “shrunken log2 fold change” value was -0.107.
With RRIRFRPPRLPRPRPRPELYPRP the “shrunken log2 fold change” value was 0.0341.
With RRIRNRPPRLPRPRPRPMPQPRP the “shrunken log2 fold change” value was -0.0321.
In the case of RRIRPRPPRLPRPRPRPWTLPRP, the “shrunken log2 fold change” value is reported as 0.104.
In the case of RRIRPRPPRLPRPRPRPDEEPRP, the “shrunken log2 fold change” value is reported as 0.0245.
RRIRMRPPRLPRPRPRPMQLPRP was tested, and the “shrunken log2 fold change” value was 0.33.
RRIRHRPPRLPRPRPRPVLIPRP was tested, and the “shrunken log2 fold change” value was -0.113.
RRIRIRPPRLPRPRPRPQQCPRP was tested, and the “shrunken log2 fold change” value was -0.211.
In the case of RRIRSRPPRLPRPRPRPHNNPRP, the “shrunken log2 fold change” value is reported as -0.751.
For RRIRVRPPRLPRPRPRPDYWPRP, the “shrunken log2 fold change” value was -0.449.
For RRIRFRPPRLPRPRPRPWNDPRP, the “shrunken log2 fold change” value was -0.243.
For RRIRPRPPRLPRPRPRPLEIPRP, the “shrunken log2 fold change” value was -0.199.
With RRIRYRPPRLPRPRPRPQNEPRP the “shrunken log2 fold change” value was -0.483.
With RRIRERPPRLPRPRPRPGTDPRP the “shrunken log2 fold change” value was 8.37e-05.
RRIRTRPPRLPRPRPRPKELPRP was tested, and the “shrunken log2 fold change” value was 0.16.
With RRIRFRPPRLPRPRPRPFEHPRP the “shrunken log2 fold change” value was -0.0558.
In the case of RRIRMRPPRLPRPRPRPTLGPRP, the “shrunken log2 fold change” value is reported as 0.685.
RRIRERPPRLPRPRPRPFAFPRP was tested, and the “shrunken log2 fold change” value was -0.0942.
RRIRMRPPRLPRPRPRPAEQPRP was tested, and the “shrunken log2 fold change” value was 0.395.
RRIRMRPPRLPRPRPRPIKNPRP was tested, and the “shrunken log2 fold change” value was 0.387.
RRIRFRPPRLPRPRPRPNNMPRP was tested, and the “shrunken log2 fold change” value was -0.699.
RRIRVRPPRLPRPRPRPEFNPRP was tested, and the “shrunken log2 fold change” value was 0.203.
For RRIRDRPPRLPRPRPRPNNPPRP, the “shrunken log2 fold change” value was -0.357.
In the case of RRIRGRPPRLPRPRPRPCQSPRP, the “shrunken log2 fold change” value is reported as 0.108.
In the case of RRIRLRPPRLPRPRPRPIKTPRP, the “shrunken log2 fold change” value is reported as -0.0953.
For RRIRLRPPRLPRPRPRPCIIPRP, the “shrunken log2 fold change” value was -0.394.
In the case of RRIRRRPPRLPRPRPRPMCFPRP, the “shrunken log2 fold change” value is reported as -0.0162.
With RRIRARPPRLPRPRPRPVWQPRP the “shrunken log2 fold change” value was 0.129.
In the case of RRIRIRPPRLPRPRPRPWVNPRP, the “shrunken log2 fold change” value is reported as -0.722.
RRIRRRPPRLPRPRPRPGASPRP was tested, and the “shrunken log2 fold change” value was 0.665.
With RRIRHRPPRLPRPRPRPAVWPRP the “shrunken log2 fold change” value was 0.261.
In the case of RRIRIRPPRLPRPRPRPNGWPRP, the “shrunken log2 fold change” value is reported as 0.101.
In the case of RRIRRRPPRLPRPRPRPRYAPRP, the “shrunken log2 fold change” value is reported as 0.284.
RRIRVRPPRLPRPRPRPVRGPRP was tested, and the “shrunken log2 fold change” value was 0.767.
With RRIRTRPPRLPRPRPRPMGEPRP the “shrunken log2 fold change” value was -0.0305.
With RRIRCRPPRLPRPRPRPARKPRP the “shrunken log2 fold change” value was 0.21.
With RRIRYRPPRLPRPRPRPEMTPRP the “shrunken log2 fold change” value was -0.0508.
With RRIRQRPPRLPRPRPRPKATPRP the “shrunken log2 fold change” value was 0.18.
In the case of RRIRHRPPRLPRPRPRPLCIPRP, the “shrunken log2 fold change” value is reported as -0.165.
For RRIRLRPPRLPRPRPRPPQHPRP, the “shrunken log2 fold change” value was 0.197.
In the case of RRIRCRPPRLPRPRPRPMGPPRP, the “shrunken log2 fold change” value is reported as 0.128.
In the case of RRIRDRPPRLPRPRPRPHSDPRP, the “shrunken log2 fold change” value is reported as -0.115.
RRIRYRPPRLPRPRPRPSPNPRP was tested, and the “shrunken log2 fold change” value was -1.34.
RRIRPRPPRLPRPRPRPHYRPRP was tested, and the “shrunken log2 fold change” value was -0.112.
For RRIRARPPRLPRPRPRPSLTPRP, the “shrunken log2 fold change” value was 0.172.
In the case of RRIRERPPRLPRPRPRPFPRPRP, the “shrunken log2 fold change” value is reported as 0.087.
For RRIRMRPPRLPRPRPRPWSPPRP, the “shrunken log2 fold change” value was -0.508.
For RRIRWRPPRLPRPRPRPRQLPRP, the “shrunken log2 fold change” value was -0.0051.
For RRIRFRPPRLPRPRPRPNTYPRP, the “shrunken log2 fold change” value was -0.499.
For RRIRTRPPRLPRPRPRPLDVPRP, the “shrunken log2 fold change” value was -0.594.
For RRIRDRPPRLPRPRPRPQITPRP, the “shrunken log2 fold change” value was -0.0201.
With RRIRRRPPRLPRPRPRPWMLPRP the “shrunken log2 fold change” value was 0.227.
With RRIRSRPPRLPRPRPRPTTHPRP the “shrunken log2 fold change” value was 0.0655.
RRIRERPPRLPRPRPRPGWFPRP was tested, and the “shrunken log2 fold change” value was -0.249.
For RRIRTRPPRLPRPRPRPFCCPRP, the “shrunken log2 fold change” value was -0.309.
For RRIRTRPPRLPRPRPRPKERPRP, the “shrunken log2 fold change” value was -0.0679.
RRIRRRPPRLPRPRPRPIEGPRP was tested, and the “shrunken log2 fold change” value was 0.0101.
With RRIRIRPPRLPRPRPRPTMNPRP the “shrunken log2 fold change” value was -1.01.
With RRIRYRPPRLPRPRPRPLQQPRP the “shrunken log2 fold change” value was -0.25.
With RRIRVRPPRLPRPRPRPCYKPRP the “shrunken log2 fold change” value was -0.691.
With RRIRFRPPRLPRPRPRPRQHPRP the “shrunken log2 fold change” value was 0.0181.
With RRIRQRPPRLPRPRPRPHNSPRP the “shrunken log2 fold change” value was -0.596.
For RRIRLRPPRLPRPRPRPVCRPRP, the “shrunken log2 fold change” value was 0.091.
RRIRTRPPRLPRPRPRPHLTPRP was tested, and the “shrunken log2 fold change” value was 0.101.
For RRIRVRPPRLPRPRPRPVSDPRP, the “shrunken log2 fold change” value was -0.0859.
With RRIRSRPPRLPRPRPRPDSVPRP the “shrunken log2 fold change” value was 0.107.
With RRIRHRPPRLPRPRPRPKTKPRP the “shrunken log2 fold change” value was 0.0995.
RRIRERPPRLPRPRPRPSEIPRP was tested, and the “shrunken log2 fold change” value was -0.16.
With RRIRDRPPRLPRPRPRPMTKPRP the “shrunken log2 fold change” value was -0.0341.
